# Experimental data taken from patent US20030148956A1 (PROCTER AND GAMBLE, published 2003).
# Ends that are not written are not given here.
# T1: corticotropin releasing factor 2 receptor
# T1 sequence (Q13324 whole entry, species assumed, looked up): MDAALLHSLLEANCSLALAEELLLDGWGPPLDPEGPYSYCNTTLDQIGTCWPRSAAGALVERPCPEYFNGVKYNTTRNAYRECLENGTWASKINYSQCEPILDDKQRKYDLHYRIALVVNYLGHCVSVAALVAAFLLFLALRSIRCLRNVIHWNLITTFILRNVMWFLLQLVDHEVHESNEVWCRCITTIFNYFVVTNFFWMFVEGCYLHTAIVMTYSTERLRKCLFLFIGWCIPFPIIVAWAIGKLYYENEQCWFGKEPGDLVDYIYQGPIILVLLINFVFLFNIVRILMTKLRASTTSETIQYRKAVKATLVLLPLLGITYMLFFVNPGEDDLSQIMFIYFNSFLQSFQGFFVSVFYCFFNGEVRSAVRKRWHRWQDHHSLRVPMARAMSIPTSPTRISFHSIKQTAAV
# Biological target: corticotropin releasing factor 1 receptor
# Test: cell-based or functional assay
Binder,CRF1R EC50,CRF1R Emax %
DNPSLSIDLPLLLLRTLLELEKTQSQRERAEQNAEIFAEV-NH2 [SEQ ID NO 323],1000 nM,36.9%
DNPSLSIDLPLLLLRTLLELEKTQSQRERAEQNAQIFAHV-NH2 [SEQ ID NO 324],1000 nM,46.6%
IVLSLDVPIGLLQILLEQEKARAAREQATTNARILARV-NH2 [SEQ ID NO 325],100 nM,5%
DNPSLSIDLPLLLLRTLLELEKTQSQRERAEQNANIFANV-NH2 [SEQ ID NO 326],1000 nM,30.1%
DNPSLSIDLPLLLLRTLLELEKTQSQRERAEQNAQIFAQV-NH2 [SEQ ID NO 327],1000 nM,36.5%
DNPSLSIDLPLFLLRTLLELARTQSQRERAEQNARIFARV-NH2 [SEQ ID NO 329],1000 nM,98.4%
DNPSLSIDLPLILLRTLLELARTQSQRERAEQNARIFARV-NH2 [SEQ ID NO 330],1000 nM,86.8%
PSLSIDLPLFLLRTLLELEKTQSQRERAEQNARIFARV-NH2 [SEQ ID NO 331],1000 nM,78.7%
PSLSIDLPLLLLRTLLELEKTQSQRERAEQNARIFARV-NH2 [SEQ ID NO 333],1000 nM,43.8%
DNPSLSIDLPLILLRTLLELEKTQSQRERAEQNARIFDRV-NH2 [SEQ ID NO 337],1000 nM,36.5%
DNPSLSIDLPQYLLRTLLELARTQSQRERAEQNAIIFASV-NH2 [SEQ ID NO 339],1000 nM,13.2%
DNPSLSIDLPLLLLRTLLELARTQSQRERAEQNARIFARV-NH2 [SEQ ID NO 340],740 nM,96%
DNPSLSIDLPLLLLRTLLELEKTQSQRERAEQNARIFARV-NH2 [SEQ ID NO 341],850 nM,82.3%
DNPSLSIDLPLQLLRTLLELEKTQSQRERAEQNAIIFASV-NH2 [SEQ ID NO 342],1000 nM,19.6%
DNPSLSIDLPLFLLRTLLELEKTQSQRERAEQNAIIFASV-NH2 [SEQ ID NO 343],783 nM,62.5%
DNPSLSIDLPLILLRTLLELEKTQSQRERAEQNAIIFASV-NH2 [SEQ ID NO 345],1000 nM,18.8%
Ac-DNPSLSIDLPLLLLRTLLELEKTQSQRERAEQNAIIFASV-NH2 [SEQ ID NO 347],1000 nM,
Ac-PSLSIDLPLLLLRTLLELEKTQSQRERAEQNAIIFASV-NH2 [SEQ ID NO 348],630 nM,
ZGPPISIDLPFQLLRKVIEIEKQEKEKQQAANNALLLDTI (C-terminal amide) [SEQ ID NO 350],1000 nM,48%

# Results, then the binder that gave them:
CRF1R EC50,CRF1R Emax %,Binder
1000 nM,30.7%,DNPSLSIDLPLLLLRTLLELEKTQSQRERAEQNAHIFAHV-NH2 [SEQ ID NO 328]
1000 nM,61.3%,PSLSIDLPLILLRTLLELEKTQSQRERAEQNARIFARV-NH2 [SEQ ID NO 332]
1000 nM,82.6%,DNPSLSIDLPLFLLRTLLELEKTQSQRERAEQNARIFARV-NH2 [SEQ ID NO 334]
1000 nM,49.5%,DNPSLSIDLPLILLRTLLELEKTQSQRERAEQNARIFARV-NH2 [SEQ ID NO 335]
1000 nM,59.9%,DNPSLSIDLPLFLLRTLLELEKTQSQRERAEQNARIFDRV-NH2 [SEQ ID NO 336]
1000 nM,41.1%,DNPSLSIDLPLLLLRTLLELEKTQSQRERAEQNARIFDRV-NH2 [SEQ ID NO 338]
650 nM,,PSLSIDLPLLLLRTLLELEKTQSQRERAEQNAIIFASV-NH2 [SEQ ID NO 344]
1000 nM,,DNPSLSIDLPLLLLRTLLELEKTQSQRERAEQNAIIFASV-NH2 [SEQ ID NO 346]
1000 nM,44.2%,ZGPPISIDLPLQLLRKVIEIEKQEKEKQQAANNALLLATI (C-terminal amide) [SEQ ID NO 349]

# Biological target: T1, corticotropin releasing factor 2 …
# Test: cell-based or functional assay
Binder,CRF2R EC50,CRF2R Emax %
DNPSLSIDLPLLLLRTLLELEKTQSQRERAEQNAEIFAEV-NH2 [SEQ ID NO 323],19.6 nM,100%
DNPSLSIDLPLLLLRTLLELEKTQSQRERAEQNAQIFAHV-NH2 [SEQ ID NO 324],17.2 nM,100%
IVLSLDVPIGLLQILLEQEKARAAREQATTNARILARV-NH2 [SEQ ID NO 325],11.7 nM,100%
DNPSLSIDLPLLLLRTLLELEKTQSQRERAEQNANIFANV-NH2 [SEQ ID NO 326],33.7 nM,100%
DNPSLSIDLPLLLLRTLLELEKTQSQRERAEQNAQIFAQV-NH2 [SEQ ID NO 327],28.4 nM,100%
DNPSLSIDLPLFLLRTLLELARTQSQRERAEQNARIFARV-NH2 [SEQ ID NO 329],5.15 nM,98.3%
DNPSLSIDLPLILLRTLLELARTQSQRERAEQNARIFARV-NH2 [SEQ ID NO 330],6 nM,93.7%
PSLSIDLPLFLLRTLLELEKTQSQRERAEQNARIFARV-NH2 [SEQ ID NO 331],9.85 nM,100%
PSLSIDLPLLLLRTLLELEKTQSQRERAEQNARIFARV-NH2 [SEQ ID NO 333],9.85 nM,96.9%
DNPSLSIDLPLILLRTLLELEKTQSQRERAEQNARIFDRV-NH2 [SEQ ID NO 337],23.9 nM,86.7%
DNPSLSIDLPQYLLRTLLELARTQSQRERAEQNAIIFASV-NH2 [SEQ ID NO 339],100 nM,47.9%
DNPSLSIDLPLLLLRTLLELARTQSQRERAEQNARIFARV-NH2 [SEQ ID NO 340],7.99 nM,100%
DNPSLSIDLPLLLLRTLLELEKTQSQRERAEQNARIFARV-NH2 [SEQ ID NO 341],8.83 nM,95.5%
DNPSLSIDLPLQLLRTLLELEKTQSQRERAEQNAIIFASV-NH2 [SEQ ID NO 342],20.2 nM,92.2%
DNPSLSIDLPLFLLRTLLELEKTQSQRERAEQNAIIFASV-NH2 [SEQ ID NO 343],13.6 nM,96.5%
DNPSLSIDLPLILLRTLLELEKTQSQRERAEQNAIIFASV-NH2 [SEQ ID NO 345],39.7 nM,100%
Ac-DNPSLSIDLPLLLLRTLLELEKTQSQRERAEQNAIIFASV-NH2 [SEQ ID NO 347],22.4 nM,
Ac-PSLSIDLPLLLLRTLLELEKTQSQRERAEQNAIIFASV-NH2 [SEQ ID NO 348],5.77 nM,
ZGPPISIDLPFQLLRKVIEIEKQEKEKQQAANNALLLDTI (C-terminal amide) [SEQ ID NO 350],11.6 nM,98.1%

# Now from value to binder:
CRF2R EC50,CRF2R Emax %,Binder
11.7 nM,95.7%,DNPSLSIDLPLLLLRTLLELEKTQSQRERAEQNAHIFAHV-NH2 [SEQ ID NO 328]
9.95 nM,100%,PSLSIDLPLILLRTLLELEKTQSQRERAEQNARIFARV-NH2 [SEQ ID NO 332]
13.2 nM,93.5%,DNPSLSIDLPLFLLRTLLELEKTQSQRERAEQNARIFARV-NH2 [SEQ ID NO 334]
28.1 nM,91%,DNPSLSIDLPLILLRTLLELEKTQSQRERAEQNARIFARV-NH2 [SEQ ID NO 335]
17.8 nM,100%,DNPSLSIDLPLFLLRTLLELEKTQSQRERAEQNARIFDRV-NH2 [SEQ ID NO 336]
19.3 nM,77.5%,DNPSLSIDLPLLLLRTLLELEKTQSQRERAEQNARIFDRV-NH2 [SEQ ID NO 338]
4.3 nM,,PSLSIDLPLLLLRTLLELEKTQSQRERAEQNAIIFASV-NH2 [SEQ ID NO 344]
8.48 nM,,DNPSLSIDLPLLLLRTLLELEKTQSQRERAEQNAIIFASV-NH2 [SEQ ID NO 346]
13.8 nM,100%,ZGPPISIDLPLQLLRKVIEIEKQEKEKQQAANNALLLATI (C-terminal amide) [SEQ ID NO 349]
